What was measured:
[1] = target: 'live' C3 (C3 with an intact thiol ester bond), P01024
[2] = target: T1, P1 Arg oligopeptide of the competing oligopeptide substrate library
T1 chain: HAAPRSANIQIAI

Human C2, P06681 = target: T2, Human C2, P06681
T2 chain: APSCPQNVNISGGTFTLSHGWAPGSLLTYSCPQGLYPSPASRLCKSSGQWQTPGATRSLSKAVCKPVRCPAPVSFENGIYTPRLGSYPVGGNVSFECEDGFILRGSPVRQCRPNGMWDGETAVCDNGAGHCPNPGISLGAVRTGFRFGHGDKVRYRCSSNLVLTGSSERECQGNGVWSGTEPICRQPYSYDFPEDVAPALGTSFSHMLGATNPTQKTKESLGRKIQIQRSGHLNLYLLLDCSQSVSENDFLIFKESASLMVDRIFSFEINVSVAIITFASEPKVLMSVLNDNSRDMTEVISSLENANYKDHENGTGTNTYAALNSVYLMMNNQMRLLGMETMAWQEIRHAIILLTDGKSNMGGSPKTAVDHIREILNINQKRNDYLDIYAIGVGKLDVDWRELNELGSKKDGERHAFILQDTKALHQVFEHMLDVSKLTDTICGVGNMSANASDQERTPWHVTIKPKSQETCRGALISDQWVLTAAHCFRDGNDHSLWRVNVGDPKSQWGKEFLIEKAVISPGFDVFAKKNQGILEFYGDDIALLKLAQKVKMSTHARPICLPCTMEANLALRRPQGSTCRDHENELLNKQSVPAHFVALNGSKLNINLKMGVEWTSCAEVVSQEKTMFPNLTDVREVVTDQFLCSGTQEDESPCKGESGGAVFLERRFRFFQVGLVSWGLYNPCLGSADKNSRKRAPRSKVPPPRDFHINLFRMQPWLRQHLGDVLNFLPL

[3] = target: T3, P1 Lys oligopeptide of the competing oligopeptide substrate library
T3 chain: HAAPKSANIQIAI

C1-inhibitor, P05155 [4] = target: T4, C1-inhibitor, P05155; test: SDS-stable complex formation of 125I-labelled MASP fragments with C1-inhibitor
T4 chain: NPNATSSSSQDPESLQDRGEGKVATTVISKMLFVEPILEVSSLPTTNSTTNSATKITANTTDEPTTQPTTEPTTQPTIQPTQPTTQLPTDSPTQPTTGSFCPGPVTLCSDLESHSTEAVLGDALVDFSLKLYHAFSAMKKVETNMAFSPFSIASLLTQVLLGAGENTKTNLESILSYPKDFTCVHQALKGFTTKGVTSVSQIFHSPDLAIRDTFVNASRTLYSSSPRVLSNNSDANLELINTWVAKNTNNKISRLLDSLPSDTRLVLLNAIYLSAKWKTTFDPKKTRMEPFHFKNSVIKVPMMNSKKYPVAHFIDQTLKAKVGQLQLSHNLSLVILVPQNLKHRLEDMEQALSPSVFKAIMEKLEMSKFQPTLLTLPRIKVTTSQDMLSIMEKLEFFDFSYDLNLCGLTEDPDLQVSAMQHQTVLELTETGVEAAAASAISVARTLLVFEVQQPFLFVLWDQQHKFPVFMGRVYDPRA

C1-inhibitor, P05155 [5] = target: T4, C1-inhibitor, P05155; test: SDS-stable complex formation of 125I-labelled MASP fragment with C1-inhibitor, reducing SDS-PAGE, autoradiography and densitometry
[6] = target: T5, alpha-2-macroglobulin, P01023
T5 chain: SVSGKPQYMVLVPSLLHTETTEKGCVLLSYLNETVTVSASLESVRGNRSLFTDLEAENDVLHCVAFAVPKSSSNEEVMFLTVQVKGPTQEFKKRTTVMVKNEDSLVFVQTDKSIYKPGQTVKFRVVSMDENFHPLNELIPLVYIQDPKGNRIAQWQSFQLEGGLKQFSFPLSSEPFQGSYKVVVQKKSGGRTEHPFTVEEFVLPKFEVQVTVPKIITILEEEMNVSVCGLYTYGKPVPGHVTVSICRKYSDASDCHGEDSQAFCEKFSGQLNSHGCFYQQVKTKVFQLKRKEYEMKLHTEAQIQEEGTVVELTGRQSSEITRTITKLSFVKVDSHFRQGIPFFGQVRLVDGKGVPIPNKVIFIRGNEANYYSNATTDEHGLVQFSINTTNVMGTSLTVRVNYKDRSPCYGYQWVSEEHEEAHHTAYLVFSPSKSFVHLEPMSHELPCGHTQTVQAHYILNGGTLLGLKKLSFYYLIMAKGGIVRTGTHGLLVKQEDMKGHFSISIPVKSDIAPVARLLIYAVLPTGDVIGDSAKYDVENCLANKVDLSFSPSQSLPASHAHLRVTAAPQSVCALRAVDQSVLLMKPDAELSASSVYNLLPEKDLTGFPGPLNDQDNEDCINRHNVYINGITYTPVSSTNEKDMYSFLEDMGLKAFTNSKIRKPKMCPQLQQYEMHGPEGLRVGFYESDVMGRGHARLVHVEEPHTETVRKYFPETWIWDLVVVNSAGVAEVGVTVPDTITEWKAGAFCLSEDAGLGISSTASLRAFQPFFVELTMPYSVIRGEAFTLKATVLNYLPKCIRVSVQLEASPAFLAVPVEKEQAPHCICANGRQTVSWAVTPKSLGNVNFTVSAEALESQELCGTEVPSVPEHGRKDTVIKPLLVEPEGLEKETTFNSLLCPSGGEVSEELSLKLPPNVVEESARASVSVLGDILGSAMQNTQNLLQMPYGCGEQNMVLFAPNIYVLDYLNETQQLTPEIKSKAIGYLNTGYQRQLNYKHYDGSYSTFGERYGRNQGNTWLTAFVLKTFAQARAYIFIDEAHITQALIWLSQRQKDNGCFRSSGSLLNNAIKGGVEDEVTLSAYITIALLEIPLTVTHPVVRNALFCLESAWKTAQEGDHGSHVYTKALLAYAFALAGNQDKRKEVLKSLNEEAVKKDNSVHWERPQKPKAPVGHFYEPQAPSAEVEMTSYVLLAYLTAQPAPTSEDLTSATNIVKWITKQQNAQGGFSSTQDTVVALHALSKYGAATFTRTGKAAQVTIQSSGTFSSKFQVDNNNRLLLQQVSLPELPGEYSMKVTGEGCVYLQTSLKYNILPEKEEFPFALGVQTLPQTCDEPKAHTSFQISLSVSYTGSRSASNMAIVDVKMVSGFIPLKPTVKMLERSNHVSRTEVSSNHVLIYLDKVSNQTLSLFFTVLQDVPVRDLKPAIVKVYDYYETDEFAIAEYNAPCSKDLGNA

Chain of Human C4, P0C0L4 (P0C0L4 whole entry, looked up): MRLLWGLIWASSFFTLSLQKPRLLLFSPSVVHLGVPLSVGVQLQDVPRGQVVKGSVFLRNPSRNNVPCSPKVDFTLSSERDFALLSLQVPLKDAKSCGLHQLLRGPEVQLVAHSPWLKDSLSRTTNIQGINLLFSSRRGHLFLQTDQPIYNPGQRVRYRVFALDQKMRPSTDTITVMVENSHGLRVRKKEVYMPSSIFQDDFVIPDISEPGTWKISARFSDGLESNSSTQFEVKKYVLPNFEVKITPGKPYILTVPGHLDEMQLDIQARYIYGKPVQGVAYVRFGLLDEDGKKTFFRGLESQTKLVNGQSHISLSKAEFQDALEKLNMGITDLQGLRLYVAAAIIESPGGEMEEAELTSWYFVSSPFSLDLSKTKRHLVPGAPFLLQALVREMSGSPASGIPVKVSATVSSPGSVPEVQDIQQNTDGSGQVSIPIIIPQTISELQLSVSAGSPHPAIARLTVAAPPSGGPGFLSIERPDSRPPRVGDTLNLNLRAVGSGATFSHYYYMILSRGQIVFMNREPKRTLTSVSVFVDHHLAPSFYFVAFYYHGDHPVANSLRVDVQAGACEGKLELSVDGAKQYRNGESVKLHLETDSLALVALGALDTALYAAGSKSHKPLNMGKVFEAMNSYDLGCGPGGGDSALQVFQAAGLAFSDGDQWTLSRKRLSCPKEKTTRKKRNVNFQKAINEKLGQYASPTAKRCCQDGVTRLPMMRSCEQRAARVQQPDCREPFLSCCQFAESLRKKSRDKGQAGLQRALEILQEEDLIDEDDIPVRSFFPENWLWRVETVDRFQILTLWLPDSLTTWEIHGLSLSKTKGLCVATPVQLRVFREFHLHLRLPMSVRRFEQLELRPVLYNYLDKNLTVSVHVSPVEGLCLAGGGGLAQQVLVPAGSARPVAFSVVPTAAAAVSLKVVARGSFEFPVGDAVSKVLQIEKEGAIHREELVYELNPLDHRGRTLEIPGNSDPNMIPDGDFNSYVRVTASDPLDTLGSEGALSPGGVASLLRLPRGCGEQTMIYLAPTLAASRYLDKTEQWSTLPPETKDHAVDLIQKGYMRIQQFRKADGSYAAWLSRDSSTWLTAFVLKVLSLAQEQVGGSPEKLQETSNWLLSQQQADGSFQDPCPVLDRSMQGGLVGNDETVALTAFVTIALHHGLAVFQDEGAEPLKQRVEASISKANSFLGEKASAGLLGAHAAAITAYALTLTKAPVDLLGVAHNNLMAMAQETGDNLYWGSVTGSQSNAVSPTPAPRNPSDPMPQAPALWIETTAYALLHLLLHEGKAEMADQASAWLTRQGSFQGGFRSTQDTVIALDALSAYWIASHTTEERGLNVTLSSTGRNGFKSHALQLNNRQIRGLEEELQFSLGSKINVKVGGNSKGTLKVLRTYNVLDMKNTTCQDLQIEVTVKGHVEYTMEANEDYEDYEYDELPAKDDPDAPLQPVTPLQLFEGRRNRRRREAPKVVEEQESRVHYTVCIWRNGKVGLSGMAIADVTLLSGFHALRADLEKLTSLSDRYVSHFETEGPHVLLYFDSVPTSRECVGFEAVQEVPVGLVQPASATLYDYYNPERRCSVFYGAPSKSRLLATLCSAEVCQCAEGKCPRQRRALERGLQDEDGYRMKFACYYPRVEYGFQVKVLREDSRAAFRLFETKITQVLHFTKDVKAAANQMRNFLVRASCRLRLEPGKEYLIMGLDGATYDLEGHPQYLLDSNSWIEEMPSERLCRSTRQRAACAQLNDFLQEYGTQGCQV
Chain of 'live' C3 (C3 with an intact thiol ester bond), P01024 (P01024 whole entry, looked up): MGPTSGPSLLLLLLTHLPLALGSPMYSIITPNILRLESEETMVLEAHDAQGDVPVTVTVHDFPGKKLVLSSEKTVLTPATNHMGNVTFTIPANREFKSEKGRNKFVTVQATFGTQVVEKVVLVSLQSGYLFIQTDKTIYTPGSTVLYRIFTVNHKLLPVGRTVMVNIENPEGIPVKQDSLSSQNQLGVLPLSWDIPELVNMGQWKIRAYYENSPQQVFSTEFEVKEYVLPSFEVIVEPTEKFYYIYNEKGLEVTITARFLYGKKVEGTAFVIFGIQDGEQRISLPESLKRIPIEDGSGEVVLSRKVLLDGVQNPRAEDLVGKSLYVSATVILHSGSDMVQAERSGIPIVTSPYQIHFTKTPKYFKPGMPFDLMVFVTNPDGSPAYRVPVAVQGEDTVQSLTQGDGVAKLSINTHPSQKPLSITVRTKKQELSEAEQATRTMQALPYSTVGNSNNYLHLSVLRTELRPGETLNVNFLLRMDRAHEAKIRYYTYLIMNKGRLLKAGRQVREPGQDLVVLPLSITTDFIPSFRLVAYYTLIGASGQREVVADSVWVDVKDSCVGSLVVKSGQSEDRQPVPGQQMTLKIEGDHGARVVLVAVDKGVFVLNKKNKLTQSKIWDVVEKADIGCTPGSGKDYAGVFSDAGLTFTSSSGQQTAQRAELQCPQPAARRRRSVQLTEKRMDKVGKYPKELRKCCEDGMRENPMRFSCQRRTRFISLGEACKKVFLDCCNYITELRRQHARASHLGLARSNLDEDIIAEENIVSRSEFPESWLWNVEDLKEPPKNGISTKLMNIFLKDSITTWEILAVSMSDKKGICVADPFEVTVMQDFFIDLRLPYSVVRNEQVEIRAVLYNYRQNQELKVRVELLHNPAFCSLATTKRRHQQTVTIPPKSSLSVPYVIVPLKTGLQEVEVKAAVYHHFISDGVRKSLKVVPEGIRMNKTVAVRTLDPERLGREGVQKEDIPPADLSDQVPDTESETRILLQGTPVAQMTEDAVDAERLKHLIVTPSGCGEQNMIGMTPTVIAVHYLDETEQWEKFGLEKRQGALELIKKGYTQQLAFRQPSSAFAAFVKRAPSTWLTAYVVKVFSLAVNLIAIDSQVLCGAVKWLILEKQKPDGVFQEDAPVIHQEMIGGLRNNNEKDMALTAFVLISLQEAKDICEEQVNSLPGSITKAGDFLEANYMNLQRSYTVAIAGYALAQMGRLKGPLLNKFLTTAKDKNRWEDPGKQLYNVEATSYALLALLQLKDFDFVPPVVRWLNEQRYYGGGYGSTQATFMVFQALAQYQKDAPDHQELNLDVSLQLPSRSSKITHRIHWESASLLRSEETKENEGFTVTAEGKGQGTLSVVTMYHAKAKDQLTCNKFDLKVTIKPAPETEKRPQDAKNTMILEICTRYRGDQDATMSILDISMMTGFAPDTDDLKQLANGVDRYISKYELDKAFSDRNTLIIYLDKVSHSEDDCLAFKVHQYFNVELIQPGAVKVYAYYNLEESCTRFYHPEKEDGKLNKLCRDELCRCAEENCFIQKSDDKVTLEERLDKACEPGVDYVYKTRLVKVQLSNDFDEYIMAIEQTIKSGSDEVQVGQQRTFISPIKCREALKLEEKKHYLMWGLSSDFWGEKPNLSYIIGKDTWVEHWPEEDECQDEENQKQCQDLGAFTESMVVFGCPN
Chain of 'dead' C3(NH3), P01024 (P01024 whole entry, looked up): as above

B1: MASP-1 CCP1-CCP2-SP fragment (protein)
chain 1: ASMTGNECPELQPPVHGKIEPSQAKYFFKDQVLVSCDTGYKVLKDNVEMDTFQIECLKDGTWSNKIPTCKIVDCRAPGELEHGLITFSTRNNLTTYKSEIKYSCQEPYYKMLNNNTGIYTCSAQGVWMNKVLGRSLPTCLPVCGLPKFSRKLMAR
chain 2: IFNGRPAQKGTTPWIAMLSHLNGQPFCGGSLLGSSWIVTAAHCLHQSLDPEDPTLRDSDLLSPSDFKIILGKHWRLRSDENEQHLGVKHTTLHPQYDPNTFENDVALVELLESPVLNAFVMPICLPEGPQQEGAMVIVSGWGKQFLQRFPETLMEIEIPIVDHSTCQKAYAPLKKKVTRDMICAGEKEGGKDACAGDSGGPMVTLNRERGQWYLVGTVSWGDDCGKKDRYGVYSYIHHNKDWIQRVTGVRN
With B1 the kcat/KM, cleavage of live C3 [1] was 300 M⁻¹ s⁻¹, the “cleavage in the competing oligopeptide substrate library” value [2] was “both enzymes cleave oligopeptides that contain either Arg or Lys at their P1 positions” and the “digestion of the P1 Arg oligopeptide at 15 min” value [2] was “at 15 min MASP-1 showed almost 90% digestion”. The “efficiency of digestion against the MASP-2 CCP1-CCP2-SP fragment” value [2] was “the MASP-1 CCP1-CCP2-SP fragment digests the P1 Arg peptide 4-5 fold more efficiently than the corresponding fragment of MASP-2”, the KM, C2 cleavage (Human C2, P06681) was 4.8 µM and the kcat, C2 cleavage (Human C2, P06681) was 0.1 s⁻¹. For the same protein, the kcat/KM, C2 cleavage (Human C2, P06681) was 30000 M⁻¹ s⁻¹, the “cleavage in the competing oligopeptide substrate library” value [3] was “both enzymes cleave oligopeptides that contain either Arg or Lys at their P1 positions” and the kcat/KM, cleavage of C3(NH3) ('dead' C3(NH3), P01024) was 6100 M⁻¹ s⁻¹. For the same protein, the KM, C4 cleavage (Human C4, P0C0L4) was 2.7 µM, the kcat, C4 cleavage (Human C4, P0C0L4) was 0.002 s⁻¹ and the kcat/KM, C4 cleavage (Human C4, P0C0L4) was 690 M⁻¹ s⁻¹. The “fold lower kobs than for the MASP-2 CCP1-CCP2-SP fragment” value (C1-inhibitor, P05155 [4]) was 5-fold less for the MASP-1 CCP1-CCP2-SP than for the MASP-2 CCP1-CCP2-SP fragment and the kobs (pseudo-first order rate of reaction at [C1-inh] = 350 nM) (C1-inhibitor, P05155 [5]) was 0.0014 s⁻¹.

B2: MASP-2 CCP1-CCP2-SP fragment (protein)
chain 1: IHYTSTAQPCPYPMAPPNGHVSPVQAKYILKDSFSIFCETGYELLQGHLPLKSFTAVCQKDGSWDRPMPACSIVDCGPPDDLPSGRVEYITGPGVTTYKAVIQYSCEETFYTMKVNDGKYVCEADGFWTSSKGEKSLPVCEPVCGLSARTTGGR
chain 2: IYGGQKAKPGDFPWQVLILGGTTAAGALLYDNWVLTAAHAVYEQKHDASALDIRMGTLKRLSPHYTQAWSEAVFIHEGYTHDAGFDNDIALIKLNNKVVINSNITPICLPRKEAESFMRTDDIGTASGWGLTQRGFLARNLMYVDIPIVDHQKCTAAYEKPPYPRGSVTANMLCAGLESGGKDSCRGDSGGALVFLDSETERWFVGGIVSWGSMNCGEAGQYGVYTKVINYIPWIENIISDF
For B2, the kcat/KM, cleavage of live C3 [1] was 350 M⁻¹ s⁻¹, the “molar excess needed to abolish cleavage of complement substrates” value [6] was “or with a large molar excess (40 fold) of alpha-2-macroglobulin” and the “cleavage in the competing oligopeptide substrate library” value [2] was “both enzymes cleave oligopeptides that contain either Arg or Lys at their P1 positions”. The “digestion of the P1 Arg oligopeptide at 15 min” value [2] was “MASP-2 cleaved less than 20% of the substrate”, the KM, C2 cleavage (Human C2, P06681) was 4 µM and the kcat, C2 cleavage (Human C2, P06681) was 1.9 s⁻¹. For the same protein, the kcat/KM, C2 cleavage (Human C2, P06681) was 500000 M⁻¹ s⁻¹, the “cleavage in the competing oligopeptide substrate library” value [3] was “both enzymes cleave oligopeptides that contain either Arg or Lys at their P1 positions” and the kcat/KM, cleavage of C3(NH3) ('dead' C3(NH3), P01024) was 3300 M⁻¹ s⁻¹. For the same protein, the KM, C4 cleavage (Human C4, P0C0L4) was 1.6 µM, the kcat, C4 cleavage (Human C4, P0C0L4) was 0.9 s⁻¹ and the kcat/KM, C4 cleavage (Human C4, P0C0L4) was 550000 M⁻¹ s⁻¹. For the same protein, the kobs (pseudo-first order rate of reaction at [C1-inh] = 350 nM) (C1-inhibitor, P05155 [5]) was 0.0078 s⁻¹.

Reference: patent US20090042248
